Measurements taken from article PMC4664405, “Mapping Soluble Guanylyl Cyclase and Protein Disulfide Isomerase Regions of Interaction” (PLoS ONE, 2015).

B1: soluble guanylyl cyclase (sGC) β subunit, of the purified reduced sGC (enzyme, human, UniProt Q02153 1-619, looked up)
chain: MYGFVNHALELLVIRNYGPEVWEDIKKEAQLDEEGQFLVRIIYDDSKTYDLVAAASKVLNLNAGEILQMFGKMFFVFCQESGYDTILRVLGSNVREFLQNLDALHDHLATIYPGMRAPSFRCTDAEKGKGLILHYYSEREGLQDIVIGIIKTVAQQIHGTEIDMKVIQQRNEECDHTQFLIEEKESKEEDFYEDLDRFEENGTQESRISPYTFCKAFPFHIIFDRDLVVTQCGNAIYRVLPQLQPGNCSLLSVFSLVRPHIDISFHGILSHINTVFVLRSKEGLLDVEKLECEDELTGTEISCLRLKGQMIYLPEADSILFLCSPSVMNLDDLTRRGLYLSDIPLHDATRDLVLLGEQFREEYKLTQELEILTDRLQLTLRALEDEKKKTDTLLYSVLPPSVANELRHKRPVPAKRYDNVTILFSGIVGFNAFCSKHASGEGAMKIVNLLNDLYTRFDTLTDSRKNPFVYKVETVGDKYMTVSGLPEPCIHHARSICHLALDMMEIAGQVQVDGESVQITIGIHTGEVVTGVIGQRMPRYCLFGNTVNLTSRTETTGEKGKINVSEYTYRCLMSPENSDPQFHLEHRGPVSMKGKKEPMQVWFLSRKNTGTEETKQDDD
notes: soluble guanylyl cyclase β subunit, human GCYB1; called full-length reduced sGC in the discussion; cross-linked lysines K127, K187, K559, K615; Bought as the α/β heterodimer and reduced before incubation with PDI; also called GCYB1; source: bought: Axxora

Key:
[1] = molecular target: T1, soluble guanylyl cyclase (sGC) α subunit, of the purified reduced sGC (human, UniProt Q02108 1-690); assay: cross-linking; reduced sGC and oxidized PDI incubated, 50 molar excess of BS3 for 30 minutes at room temperature (22°C) in the dark, alkylated with 40 mM iodoacetamide, non-reducing 7.5% TGX gel, bands digested with trypsin, RPLC-MS/MS, MassMatrix search; settings: both partners purified
T1 construct: soluble guanylyl cyclase α subunit, human GCYA3; called full-length reduced sGC in the discussion; cross-linked lysines K5, K606, K672, K673, K685; Bought as the α/β heterodimer and reduced before incubation with PDI; also called GCYA3; source: bought: Axxora
T1 sequence (looked up): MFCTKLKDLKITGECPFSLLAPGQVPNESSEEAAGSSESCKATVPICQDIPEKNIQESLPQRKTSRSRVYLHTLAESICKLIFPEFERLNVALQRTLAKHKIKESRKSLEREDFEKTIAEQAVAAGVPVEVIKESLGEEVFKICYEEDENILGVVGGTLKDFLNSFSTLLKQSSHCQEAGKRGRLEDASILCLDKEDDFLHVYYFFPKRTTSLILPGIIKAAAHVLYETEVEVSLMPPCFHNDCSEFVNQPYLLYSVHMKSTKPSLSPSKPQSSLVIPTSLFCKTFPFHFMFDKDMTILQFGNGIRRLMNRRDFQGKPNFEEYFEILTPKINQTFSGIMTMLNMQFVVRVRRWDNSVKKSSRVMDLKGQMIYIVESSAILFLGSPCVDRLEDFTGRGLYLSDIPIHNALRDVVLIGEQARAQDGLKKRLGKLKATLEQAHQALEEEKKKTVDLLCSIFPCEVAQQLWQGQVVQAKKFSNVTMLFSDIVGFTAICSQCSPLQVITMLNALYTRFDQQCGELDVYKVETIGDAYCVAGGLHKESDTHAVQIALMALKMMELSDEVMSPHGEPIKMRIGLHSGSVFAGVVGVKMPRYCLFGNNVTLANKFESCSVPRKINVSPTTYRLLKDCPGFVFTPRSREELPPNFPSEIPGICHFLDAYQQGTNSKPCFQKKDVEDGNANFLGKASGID

[2] = molecular target: B1; assay: as above; settings: both partners purified

Binder | binding result [1] | binding result [2]
protein disulfide isomerase (PDI), oxidized, purified (enzyme, oxidized: each active site Cys-x-x-Cys forms a disulfide bond, protein disulfide isomerase, human P4HB; called full-length oxidized PDI in the discussion; cross-linked lysines K370 and K409; also called oxidized PDI; oxPDI; source: PDI in pTRC-HisA, purified as described previously [11]) not shown | binds | binds
B1 | binds | 
